According to patent US20170014494A1:

Target: SERCA2a wild type (WT), expressed from a plasmid in HEK293 cells
Test: cell-based or functional assay

EC50 (Ca2+) of ATPase activity of WT SERCA2a with co-expression of SUMO1: 110 nM
Substance: flag-tagged SUMO1 (from UniProt P63165 2-97)
